Assay: soluble on expression in E. coli; label from the status in PepcDB or PDB records
For “MEYKLHNGSGGLCCKGCSRQDKKLNTYDWLADIPGNAEECDMVEVQFKNTRKGYYRNSNKIKLEKGDIVAVEAAPGHDIGVVTLTGRLVPLQMKKANFKTDVEIKRIYRKAKPVDMEKFNEAKAKEHATMIRARQIALNLNLDMKIGDVEYQGDGNKAIFYYIADERVDFRQLIKVLAEAFRVRIEMKQIGARQEAGRIGGIGPCGRELCCATWMTSFVSVSTSAARFQDISLNPQKLAGQCAKLKCCLNYEVDCYVEAQKRLPSKEIELETKDGTFYFFKADILSNHVSYSTDKNFPANLVTISGKRAFEVIAMNKKGMKPDSLLEAEVKQESKKPIDLLEQESLTRFDRNRNNKDGNNGNRNKKKRKGNNDNRPQAQAESGNRPQQPQRGENENRPQPSENGNRGERGDRENRPRNNNNNNRNRGQNQGRNNENRRPERGQNQERPQNPNRPQNQERSQNQERPVNQERNQERNQERPQNRERQPKQERPQNQERPQEQGRQPNQERIPRPERNSNQEKPQNNEKPAQE”, the “soluble on expression in E. coli” value was “not soluble”. In the case of “MKNADKNFEKEKYIDSLRDYLAVLDKVDDESLKAEICYKVSQIYHYLQKDDPQNALKYAQMSMDLHAKHGEDDLTVLDLINIASILMDSGDKKGALQKLDEAIQKAKDMGDDEIQLIAMSSKASMIAEDNREEALKLYQEVMRKSQEIGDIEDYFDAVQGIVNMVREEDEHRAFEMIMKAIEELENYISGIKSKKEKKDVADSFSYLYDTASDIAMSIGDVDQAMEIAKRLQKIVS”, the “soluble on expression in E. coli” value is reported as “not soluble”. For “SLAPTTEIEPIEAQSLKKLSLKSLKRSLELFSPVHGQFPPPDPEAKQIRLSHKMKVAFGGVEPVVSQPPRQPDRINEQPGPSNALSLAAPEGSKSTQKGATESAIVVGPTLLRPILPKGLNYTGSSGKSTTIIPANVSSYQRNLSTAALMERIPSRWPRPEWHAPWKNYRVIQGHLGWVRSVAFDPSNEWFCTGSADRTIKIWDVATGVLKLTLTGHIEQVRGLAVSNRHTYMFSAGDDKQVKCWDLEQNKVIRSYHGHLSGVYCLALHPTLDVLLTGGRDSVCRVWDIRTKMQIFALSGHDNTVCSVFTRPTDPQVVTGSHDTTIKFWDLRYGKTMSTLTHHKKSVRAMTLHPKENAFASASADNTKKFSLPKGEFCHNMLSQQKTIINAMAVNEDGVMVTGGDNGSIWFWDWKSGHSFQQSETIVQPGSLESEAGIYAACYDNTGSRLVTCEADKTIKMWKEDENATPETHPINFKPPKEIRRF”, the “soluble on expression in E. coli” value was “soluble”. In the case of “MPLKLTTYYQGSEIPDFPGTNTFHSKELFQIYEETPGYTPLLIMASEDGKPVARLLAAIRKSIRMFPPAFIKRCEIYGTGEYLTAEADKERIFGEMLEHLTTEALRNSFLIEFRNLENAMFGYKYFRSNRYFPVNWLRVRNSLHGIENAEQRFSPSRIRQIKKGLKNGAKVDEARTVEEIREFSNMLRHLYSSRIRKHFPNIIFFQHMDTRLIHSRQAKIFIVRYKDKIIGGSACIYSGNDAYLWFSGGMRKTYALQYPGILAVWKALQDAHQNGFRHMEFMDAGLPFKKHGYRDFVLRFGGKQSSTRRWFRFRWQWLNDLLIKIYV”, the “soluble on expression in E. coli” value is reported as “not soluble”. In the case of “MTTLLNPYFGEFGGMYVPQILMPALNQLEEAFVSAQKDPEFQAQFADLLKNYAGRPTALTKCQNITAGTRTTLYLKREDLLHGGAHKTNQVLGQALLAKRMGKSEIIAEVGAGNHGVASALASALLGLKCRIYMGAKDVERQSPNVFRMRLMGAEVIPVHSGSATLKDACNEALRDWSGSYETAHYMLGTAAGPHPYPTIVREFQRMIGEETKAQILDKEGRLPDAVIACVGGGSNAIGMFADFINDTSVGLIGVEPGGHGIETGEHGAPLKHGRVGIYFGMKAPMMQTADGQIEESYSISAGLDFPSVGPQHAYLNSIGRADYVSITDDEALEAFKTLCRHEGIIPALESSHALAHALKMMREQPEKEQLLVVNLSGRGDKDIFTVHDILKARGEI”, the “soluble on expression in E. coli” value is reported as “soluble”. In the case of “MSNRNGGGGGGDYQDVIESLRRTQLIFEEDDNNSSDSAPQANHLSRHQTSNSLVEDMVNHSNGNPPPVPPGITQQQCQIGLTPRMSASPPSAVSTISGTAVLGKTMARVQSNPPGSIPHNTTTTAQGIQSVAPHIPIGGGGATDDSSAEILSVFECPVCLEYMLPPYMQCSSGHLVCSNCRPKLQCCPTCRGPTPSVRNLGLEKIANTVRFPCKFSTSGCPLNFHHADKTEHEELCEFRPYCCPCPGASCKWQGGLSDVMEHLKKIHKSITTLQGEDIVFLATDINLPGAVDWVMMQSCFDYNFMLVLEKQEKYDPAQPTQMFYAVVQLIGSKKEADNFVYRLELSASRRRMSWEATPRSIHEGVVVAIQQSDCLAFDSNAAQLFAENGNLGINVTISRIDTPQRRHPNELENSDLEYD”, the “soluble on expression in E. coli” value is reported as “not soluble”. For “MRFKVGIEFDESLELPFNYNKILQGFIYRNIMDKDLARFIHDRGFSYEKRKYKMFTFSRLQGKFSIDSKKKKIIYQSPVELVVSSCYEDFFIDLSLSLLRRDVEIAGHKAYVSKMDIIMEEPKSIQKIRMLSPVTAYSTLDDKRTVYFSPYNHDFKRIIKENLIKKYKAFYKDDSKDNVDFDIELVSDKYAKVISSYDGFIIEGWMGDFVLKGDQEVIKLAYDAGIGGKNSQGFGCFKLI”, the “soluble on expression in E. coli” value was “soluble”. For “MDLLKKEYTGITYISGPLLFVENAKDLAYGAIVDIKDGTGRVRGGQVIEVSEEYAVIQVFEETTGLDLATTSVSLVEDVARLGVSKEMLGRRFNGIGKPIDGLPPITPEKRLPITGLPLNPVARRKPEQFIQTGISTIDVMNTLVRGQKLPIFSGSGLPANEIAAQIARQATVRPDLSGEGEKEEPFAVVFAAMGITQRELSYFIQEFERTGALSRSVLFLNKADDPTIERILTPRMALTVAEYLAFEHDYHVLVILTDMTNYCEALREIGAAREEIPGRRGYPGYMYTDLATIYERAGVVEGKKGSVTQIPILSMPDDDRTHPIPDLTGYITEGQIQLSRELHRKGIYPPIDPLPSLSRLMNNGVGKGKTREDHKQVSDQLYSAYANGVDIRKLVAIIGEDALTENDRRYLQFADAFERFFINQGQQNRSIEESLQIAWALLSMLPQGELKRISKDHIGKYYGQKLEEIWGAPQALD”, the “soluble on expression in E. coli” value was “soluble”. With “MNDLEKKFYELPELPYPYDALEPHISREQLTIHHQKHHQAYVDGANALLRKLDEARESDTDVDIKAALKELSFHVGGYVLHLFFWGNMGPADECGGEPSGKLAEYIEKDFGSFERFRKEFSQAAISAEGSGWAVLTYCQRTDRLFIMQVEKHNVNVIPHFRILLVLDVWEHAYYIDYRNVRPDYVEAFWNIVNWKEVEKRFEDIL” the “soluble on expression in E. coli” value was “soluble”. For “MVSTHSSQYITDFTPVPAEPGKSPLALLAKTCETIGLPEGSSKKNGASSSSSPQGKKDEKNHILHHQHHQQQQQSKQKSSPRSTPQSKEPTLTFPGLPKPSFPMGMPGMMQGFPFFNPMMTAYGCFPGAFPMSQGFMGAQRLPCPFAMMRQPCANPACVQCPSSSSNAAKNGQMTAEMMSQFAAHPLFSMYAGMMPGVPTSSYQALLAASAAASTSAGPTDYSNVASTSKASPQPKPTAQKSQKSAKFPCNWVDSDVPCGKVFDEENELASHVKKMHAPSPSSSASSEQSTSTGKASRSSTTTPHRFNPYGKPVAPAPPTMQQMGMNMAMNPLVLPFSLQAMYSNRLMSTVAHQ”, the “soluble on expression in E. coli” value was “not soluble”. For “MLKSIILLICAHCAFSDRLDAGSQADCVAAANKIYNNEWGFDHKLVYDKELEPFAAETPCGIAYLQNGLAEVGSGGAHTSVNLREEHTRIACVPKKCGGVEVACAVGGPSMALNLKRKIRKLRQIRCLRTFGATVTLKN”, the “soluble on expression in E. coli” value was “not soluble”. With “MAHHHHHHMCADGVDKVPDETDNRETNEKKRPKRKRRYIDIDKMNFDFEEEDFASSSNEELVRRNYVNEEEYTGGYANGYTNEHMNGLPYQKDINMNSEVIRGLLEPPPIPFNDTFQKYNREISDVYVKQKKKSSGTLNIFLESQLLCIDEGAFEKENNFINNHFDNFIMRKLNVVNTTNMQDTTNQNKDLQELLKYLMSWYFSGFYSGRVSMLKELHGE” the “soluble on expression in E. coli” value was “soluble”. In the case of “MSLAHVCSVILVRRSFDIHHEQQKISLHNESILLLDKNLADDFAFCSLDTRRLDIEELTVCHYLQNIRQLPRNLGLHSKDRLLINQSPPIQLVTAIFDSFNDPRVNSPILSKMLYLSCLSMFSHKKELIPLLFNSISTVSGKVERLISFDIAKRWYLRDIAERMYTSESLIKKKLQDENTCFSKILLASRMSMARRLLELRQIPLHTIAEKCGYSSTSYFINTFRQYYGVTPHQFSQHSPGTEGHHHHHH”, the “soluble on expression in E. coli” value is reported as “soluble”. With “MGSDKIHHHHHHMNLKTTLGLLAGRSSHFVLSRLGRGSTLPGKVALQFDKDILQNLAKNYEIVVVTGTNGKTLTTALTVGILKEVYGQVLTNPSGANMITGIATTFLTAKSSKTGKNIAVLEIDEASLSRICDYIQPSLFVITNIFRDQMDRFGEIYTTYNMILDAIRKVPTATVLLNGDSPLFYKPTIPNPIEYFGFDLEKGPAQLAHYNTEGILCPDCQGILKYEHNTYANLGAYICEGCGCKRPDLDYRLTKLVELTNNRSRFVIDGQEYGIQIGGLYNIYNALAAVAIARFLGADSQLIKQGFDKSRAVFGRQETFHIGDKECTLVLIKNPVGATQAIEMIKLAPYPFSLSVLLNANYADGIDTSWIWDADFEQITDMDIPEINAGGVRHSEIARRLRVTGYPAEKITETSNLEQVLKTIENQDCKHAYILATYTAMLEFRELLASRQIVRKEMN” the “soluble on expression in E. coli” value was “not soluble”. In the case of “WTGEDSAEPNSDSAEWIRDMYAKVTEIWQEVMQRRDDDGTLHAACQVQPSATLDAAQPRVTGVVLFRQLAPRAKLDAFFALEGFPTEPNSSSRAIHVHQFGDLSQGCESTGPHYNPLAVPHPQHPGDFGNFAVRDGSLWRYRAGLAASLAGPHSIVGRAVVVHAGEDDLGRGGNQASVENGNAGRRLACCVVGVCGPGLWERQAREHSERKKRRRESECKAA”, the “soluble on expression in E. coli” value is reported as “soluble”. For “SGIMHQINNVYSLTPLSLPMELTPSCNEFYLKTWSEWEKNGTPGEQRNIAFNRLKICLQNQEAELNLSELDLKTLPDLPPQITTLEIRKNLLTHLPDLPPMLKVIHAQFNQLESLPALPETLEELNAGDNKIKELPFLPENLTHLRVHNNRLHILPLLPPELKLLVVSGNRLDSIPPFPDKLEGLALANNFIEQLPELPFSMNRAVLMNNNLTTLPESVLRLAQNAFVNVAGNPLSGHT”, the “soluble on expression in E. coli” value was “not soluble”. For “MDKVKAARSLIQEALAQSQNPCFTCSFQAEDVVVLHLLLKERPEIPVLFLDTGYHFPEVYAYRDELQKRLGFRLVNLTPALSREEQERLYGKLYETDPGRCCALRKVEPLFAALEAHDTWFTGLRREQSPTRRNLEPQEEARLPSGHRLKKVNPLYDWTLKEVFAYLAVEDLPYLPLYDQGYLSIGCAPCTAKPLDPSDPRSGRWAGKGKLECGIHLHGKEG”, the “soluble on expression in E. coli” value was “soluble”. With “VVTRQLGRAPRGVLAIAYRCPNGEPGVVKTAPRLPDGTPFPTLYYLTHPVLTAAASRLETTGLMREMNRRLGQDAELAAAYRRAHESYLSERDALEPLGTTVSAGGMPDRVKCLHVLIAHSLAKGPGLNPFGDEALALLAAEPRTAATLVAGQWR” the “soluble on expression in E. coli” value was “soluble”. With “MKFGKEIAKKNQIIYRYIILKIQSFEWPANTRIFSERQLEIRFNSSRSQIRSVLATLLNKNIIRYTKNTPGYFVCKDVGFSFFHKTQDNLKVKYAKLSTLIKKLLSQDDASVFANIDSTVHLDKFKGIEAKFFDENKKHFLNVCFFAKDDILNILDENNLQQQFFREFAYNGIAIEKRHCVTSVDKESGCLVMYDMYYDDNDNFVVASKSNFLNPELKVINA” the “soluble on expression in E. coli” value was “soluble”. In the case of “TADNNSMPHGAVSSYAKLVQNQTPEDILEEFPEIIPLQQRPNTRSSETSNDESGETCFSGHDEEQIKLMNENCIVLDWDDNAIGAGTKKVCHLMENIEKGLLHRAFSVFIFNEQGELLLQQRATEKITFPDLWTNTCCSHPLCIDDELGLKGKLDDKIKGAITAAVRKLDHELGIPEDETKTRGKFHFLNRIHYMAPSNEPWGEHEIDYILFYKINAKENLTVNPNVNEVRDFKWVSPNDLKTMFADPSYKFTPWFKIICENYLFNWWEQLDDLSEVENDRQIHRML”, the “soluble on expression in E. coli” value is reported as “soluble”. With “MSLKAYKTDGTHFRAITRQTLLGADEDERALGHQTRYFEIAPGGYSSLERHQHTHTVMILRGQGELILGDALHRIGRHDCIYIAPQTFHQFHASGDEPLGFLCIVDRERDRPREGHHHHHH” the “soluble on expression in E. coli” value was “not soluble”.

— the DeepSol protein solubility set
